Patent US20260167699A1 (Chugai, published 2026)

What was measured:
[1] = biological target: T1, FcγRIa extracellular domain with C-terminal His tag (human, UniProt P12314 16-292); assay: SPR; % of GpH7-A5/GpH7-B3/GpL16-k0
T1 construct: extracellular domain; also called 1a; CD64

[2] = biological target: T2, FcγRIIIa extracellular domain with C-terminal His tag (human, UniProt P08637 17-208); assay: SPR; % of GpH7-A5/GpH7-B3/GpL16-k0
T2 construct: extracellular domain; also called 3a; CD16

[3] = biological target: T3, FcγRIIb extracellular domain with C-terminal His tag (human, UniProt P31994 43-217); assay: SPR; % of GpH7-A5/GpH7-B3/GpL16-k0
T3 construct: extracellular domain; also called 2b; CD32
T3 sequence: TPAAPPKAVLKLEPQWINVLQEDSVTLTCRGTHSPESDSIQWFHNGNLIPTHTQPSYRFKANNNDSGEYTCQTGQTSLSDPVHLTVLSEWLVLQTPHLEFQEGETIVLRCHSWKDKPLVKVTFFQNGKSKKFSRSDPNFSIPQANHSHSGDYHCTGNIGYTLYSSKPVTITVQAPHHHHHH

[4] = biological target: T4, FcγRIIa(R) extracellular domain with C-terminal His tag (human, UniProt P12318 34-217); assay: SPR; % of GpH7-A5/GpH7-B3/GpL16-k0
T4 construct: extracellular domain; R131 allotype; also called 2aR; CD32
T4 sequence: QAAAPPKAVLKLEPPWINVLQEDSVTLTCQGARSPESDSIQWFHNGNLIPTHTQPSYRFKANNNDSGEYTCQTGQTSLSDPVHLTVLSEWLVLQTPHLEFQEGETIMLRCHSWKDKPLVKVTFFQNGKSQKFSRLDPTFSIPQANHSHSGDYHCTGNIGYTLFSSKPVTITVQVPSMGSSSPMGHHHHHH

[5] = biological target: T5, FcγRIIa(H) extracellular domain with C-terminal His tag (human, UniProt P12318 34-217); assay: SPR; % of GpH7-A5/GpH7-B3/GpL16-k0
T5 construct: extracellular domain; H131 allotype; also called 2aH; CD32
T5 sequence: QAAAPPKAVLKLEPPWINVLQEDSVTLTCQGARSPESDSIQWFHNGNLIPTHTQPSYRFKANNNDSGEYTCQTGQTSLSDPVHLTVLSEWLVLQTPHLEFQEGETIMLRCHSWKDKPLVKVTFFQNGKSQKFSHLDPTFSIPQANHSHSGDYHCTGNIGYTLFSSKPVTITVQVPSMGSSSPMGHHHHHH

FcγRIIa(H) = biological target: T6, FcγRIIa(H) (human, UniProt P12318 34-217); assay: SPR, relative to GpH7-A5/GpH7-B3/GpL16-k0 =100
T6 construct: extracellular domain; also called 2aH
T6 sequence: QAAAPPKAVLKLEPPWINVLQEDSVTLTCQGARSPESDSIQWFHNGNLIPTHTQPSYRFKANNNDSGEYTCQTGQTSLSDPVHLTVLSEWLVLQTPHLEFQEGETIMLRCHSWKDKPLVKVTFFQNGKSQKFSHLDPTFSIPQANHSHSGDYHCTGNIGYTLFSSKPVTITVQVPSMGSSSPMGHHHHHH

FcγRIIb = biological target: T7, FcγRIIb (human, UniProt P31994 43-217); assay: SPR, relative to GpH7-A5/GpH7-B3/GpL16-k0 =100
T7 construct: extracellular domain; also called 2b
T7 sequence: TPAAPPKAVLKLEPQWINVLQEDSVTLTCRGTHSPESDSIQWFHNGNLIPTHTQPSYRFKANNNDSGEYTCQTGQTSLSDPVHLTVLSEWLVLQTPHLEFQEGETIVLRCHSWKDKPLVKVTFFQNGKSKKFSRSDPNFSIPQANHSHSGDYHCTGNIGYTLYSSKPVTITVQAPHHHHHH

FcγRIa = biological target: T8, FcγRIa (human, UniProt P12314 16-292); assay: SPR, relative to GpH7-A5/GpH7-B3/GpL16-k0 =100
T8 construct: extracellular domain; also called 1a
T8 sequence (P12314 other isoform, or with tags, fused parts or gaps): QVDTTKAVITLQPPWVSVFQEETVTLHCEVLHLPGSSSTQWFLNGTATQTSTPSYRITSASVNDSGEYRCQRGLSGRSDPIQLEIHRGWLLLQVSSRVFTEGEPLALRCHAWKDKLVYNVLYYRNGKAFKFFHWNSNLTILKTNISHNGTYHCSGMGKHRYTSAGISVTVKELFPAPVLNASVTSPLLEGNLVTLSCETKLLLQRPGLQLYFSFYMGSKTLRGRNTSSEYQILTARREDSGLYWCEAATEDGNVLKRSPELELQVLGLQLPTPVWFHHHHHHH

FcγRIIa(R) = biological target: T9, FcγRIIa(R) (human, UniProt P12318 34-217); assay: SPR, relative to GpH7-A5/GpH7-B3/GpL16-k0 =100
T9 construct: extracellular domain; also called 2aR
T9 sequence: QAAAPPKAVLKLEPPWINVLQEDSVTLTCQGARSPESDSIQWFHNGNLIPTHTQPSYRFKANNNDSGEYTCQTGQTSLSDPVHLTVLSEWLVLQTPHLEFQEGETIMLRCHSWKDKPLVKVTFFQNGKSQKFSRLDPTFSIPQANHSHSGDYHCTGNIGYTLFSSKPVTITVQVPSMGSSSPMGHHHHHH

T1 sequence (P12314 other isoform, or with tags, fused parts or gaps): as the sequence (P12314 other isoform, or with tags, fused parts or gaps) above
T2 sequence (P08637 other isoform, or with tags, fused parts or gaps): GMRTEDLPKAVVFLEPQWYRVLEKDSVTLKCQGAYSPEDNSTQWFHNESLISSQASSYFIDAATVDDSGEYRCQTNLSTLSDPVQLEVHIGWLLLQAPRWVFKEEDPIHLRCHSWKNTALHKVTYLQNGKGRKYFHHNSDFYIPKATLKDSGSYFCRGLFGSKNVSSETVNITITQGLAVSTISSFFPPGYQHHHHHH

| Binder | He/Con 1a [1] | He/Con 3a [2] | He/Con 2b [3] | He/Con 2aR [4] | He/Con 2aH [5] | He/Con 2aH (FcγRIIa(H)) | He/Con 2b (FcγRIIb) | He/Con 1a (FcγRIa) | He/Con 2aR (FcγRIIa(R)) |
| --- | --- | --- | --- | --- | --- | --- | --- | --- | --- |
| GpH7-A5/GpH7-B3 variant E333_02A/GpL16-k0 (antibody, human IgG1, kappa, heterodimerized IgG1 (He Ab), mutation in one H chain only; also called He Ab) heavy 1: not shown heavy 2: not shown light: DIVMTQSPLSLPVTPGEPASISCQASESLVHSNRNTYLHWYLQKPGQSPQLLIYKVSNRFSGVPDRFSGSGSGTDFTLKISRVEAEDVGVYYCSQNTHVPPTFGQGTKVEIERTVAAPSVFIFPPSDEQLKSGTASVVCLLNNFYPREAKVQWKVDNALQSGNSQESVTEQDSKDSTYSLSSTLTLSKADYEKHKVYACEVTHQGLSSPVTKSFNRGEC | 97.7% | 108% | 108% | 128% | 115% | – | – | – | – |
| GpH7-A5/GpH7-B3 variant Y300_20W/GpL16-k0 (antibody, human IgG1, kappa, He Ab: heterodimerized IgG1, one H chain mutated) heavy 1: not shown heavy 2: not shown light: DIVMTQSPLSLPVTPGEPASISCQASESLVHSNRNTYLHWYLQKPGQSPQLLIYKVSNRFSGVPDRFSGSGSGTDFTLKISRVEAEDVGVYYCSQNTHVPPTFGQGTKVEIERTVAAPSVFIFPPSDEQLKSGTASVVCLLNNFYPREAKVQWKVDNALQSGNSQESVTEQDSKDSTYSLSSTLTLSKADYEKHKVYACEVTHQGLSSPVTKSFNRGEC | – | – | – | – | – | 103% | 110% | 106% | 104% |
| GpH7-A5/GpH7-B3 variant A330_11K/GpL16-k0 (antibody, human IgG1, kappa, heterodimerized IgG1 (He Ab), mutation in one H chain only; also called He Ab) heavy 1: not shown heavy 2: not shown light: DIVMTQSPLSLPVTPGEPASISCQASESLVHSNRNTYLHWYLQKPGQSPQLLIYKVSNRFSGVPDRFSGSGSGTDFTLKISRVEAEDVGVYYCSQNTHVPPTFGQGTKVEIERTVAAPSVFIFPPSDEQLKSGTASVVCLLNNFYPREAKVQWKVDNALQSGNSQESVTEQDSKDSTYSLSSTLTLSKADYEKHKVYACEVTHQGLSSPVTKSFNRGEC | 107% | 91.8% | 107% | 124% | 118% | – | – | – | – |
| GpH7-A5/GpH7-B3 variant Y300_19Q/GpL16-k0 (antibody, human IgG1, kappa, He Ab: heterodimerized IgG1, one H chain mutated) heavy 1: not shown heavy 2: not shown light: DIVMTQSPLSLPVTPGEPASISCQASESLVHSNRNTYLHWYLQKPGQSPQLLIYKVSNRFSGVPDRFSGSGSGTDFTLKISRVEAEDVGVYYCSQNTHVPPTFGQGTKVEIERTVAAPSVFIFPPSDEQLKSGTASVVCLLNNFYPREAKVQWKVDNALQSGNSQESVTEQDSKDSTYSLSSTLTLSKADYEKHKVYACEVTHQGLSSPVTKSFNRGEC | – | – | – | – | – | 107% | 142% | 106% | 119% |
| GpH7-A5/GpH7-B3 variant E333_04F/GpL16-k0 (antibody, human IgG1, kappa, heterodimerized IgG1 (He Ab), mutation in one H chain only; also called He Ab) heavy 1: not shown heavy 2: not shown light: DIVMTQSPLSLPVTPGEPASISCQASESLVHSNRNTYLHWYLQKPGQSPQLLIYKVSNRFSGVPDRFSGSGSGTDFTLKISRVEAEDVGVYYCSQNTHVPPTFGQGTKVEIERTVAAPSVFIFPPSDEQLKSGTASVVCLLNNFYPREAKVQWKVDNALQSGNSQESVTEQDSKDSTYSLSSTLTLSKADYEKHKVYACEVTHQGLSSPVTKSFNRGEC | 96.9% | 104% | 122% | 139% | 116% | – | – | – | – |
| GpH7-A5/GpH7-B3 variant E333_03V/GpL16-k0 (antibody, human IgG1, kappa, heterodimerized IgG1 (He Ab), mutation in one H chain only; also called He Ab) heavy 1: not shown heavy 2: not shown light: DIVMTQSPLSLPVTPGEPASISCQASESLVHSNRNTYLHWYLQKPGQSPQLLIYKVSNRFSGVPDRFSGSGSGTDFTLKISRVEAEDVGVYYCSQNTHVPPTFGQGTKVEIERTVAAPSVFIFPPSDEQLKSGTASVVCLLNNFYPREAKVQWKVDNALQSGNSQESVTEQDSKDSTYSLSSTLTLSKADYEKHKVYACEVTHQGLSSPVTKSFNRGEC | 99.4% | 106% | 120% | 135% | 112% | – | – | – | – |
| GpH7-A5/GpH7-B3 variant Y300_18N/GpL16-k0 (antibody, human IgG1, kappa, He Ab: heterodimerized IgG1, one H chain mutated) heavy 1: not shown heavy 2: not shown light: DIVMTQSPLSLPVTPGEPASISCQASESLVHSNRNTYLHWYLQKPGQSPQLLIYKVSNRFSGVPDRFSGSGSGTDFTLKISRVEAEDVGVYYCSQNTHVPPTFGQGTKVEIERTVAAPSVFIFPPSDEQLKSGTASVVCLLNNFYPREAKVQWKVDNALQSGNSQESVTEQDSKDSTYSLSSTLTLSKADYEKHKVYACEVTHQGLSSPVTKSFNRGEC | – | – | – | – | – | 101% | 92.7% | 101% | 96.2% |
